Source: patent US20200040086A1 (BERLIN CHEMIE, published 2020)

Tests used:
Experiment in all cases: peptide microarray of 8mer LY75 peptides, LY75_A1 at 1 µg/mL, anti-human IgG Alexa 647
AVYFHQHS = biological target: T1, AVYFHQHS
T1 construct: 8mer of LY75 on the peptide microarray, chart Region 8
T1 peptide: AVYFHQHS
Protocol: (§1) The peptide microarray analysis was performed by LC Sciences, Houston Tex., in brief the method comprised the following steps:—Contiguous 8mer peptides of LY75 protein having […] spanning residues 216 to 1666 of the full length LY75 protein were synthesized and immobilized on a microarray chip. The chip comprised three panels such that the experiment was performed in triplicate. The microarray was addressed with LY75_A1 to identify the peptides to which the antibody bound. The binding assay was performed under the following conditions:—
(§2) The microarray comprising the contiguous peptides in triplicate was washed with 1 mL of binding buffer at 4° C. for 20 min. It was then incubated with 1 μg/mL LY75_A1 in binding buffer (pH 7.0) at 4° C. for 2 hrs. The array was again washed with 0.5 mL of washing buffer at 4° C. for 30 min then incubated with 25 ng/mL anti-human IgG Alexa 647 conjugate in binding buffer (pH 7.0) at 4° C. for 1 hr. The array was again washed with 0.5 mL of washing buffer at 4° C. for 30 min.

ELTYSNFH = biological target: T2, ELTYSNFH
T2 construct: 8mer of LY75 on the peptide microarray, chart Region 5
T2 peptide: ELTYSNFH
Protocol: as §1, §2

LNNLYKII = biological target: T3, LNNLYKII
T3 construct: 8mer of LY75 on the peptide microarray, chart Region 7
T3 peptide: LNNLYKII
Protocol: as §1, §2

SLSCYKVF = biological target: T4, SLSCYKVF
T4 construct: 8mer of LY75 on the peptide microarray, chart Region 2
T4 peptide: SLSCYKVF
Protocol: as §1, §2

RYPWHRFP = biological target: T5, RYPWHRFP
T5 construct: 8mer of LY75 on the peptide microarray, chart Region 4
T5 peptide: RYPWHRFP
Protocol: as §1, §2

QYKGHCYK = biological target: T6, QYKGHCYK
T6 construct: 8mer of LY75 on the peptide microarray, chart Region 10
T6 peptide: QYKGHCYK
Protocol: as §1, §2

YDDREFIY = biological target: T7, YDDREFIY
T7 construct: 8mer of LY75 on the peptide microarray, chart Region 3
T7 peptide: YDDREFIY
Protocol: as §1, §2

DHFTYSRY = biological target: T8, DHFTYSRY
T8 construct: 8mer of LY75 on the peptide microarray, chart Region 4
T8 peptide: DHFTYSRY
Protocol: as §1, §2

KKLSRLTY = biological target: T9, KKLSRLTY
T9 construct: 8mer of LY75 on the peptide microarray, chart Region 9
T9 peptide: KKLSRLTY
Protocol: as §1, §2

NGSRWIQY = biological target: T10, NGSRWIQY
T10 construct: 8mer of LY75 on the peptide microarray, chart Region 10
T10 peptide: NGSRWIQY
Protocol: as §1, §2

TSCSERHF = biological target: T11, TSCSERHF
T11 construct: 8mer of LY75 on the peptide microarray, chart Region 6
T11 peptide: TSCSERHF
Protocol: as §1, §2

YKGHCYKS = biological target: T12, YKGHCYKS
T12 construct: 8mer of LY75 on the peptide microarray, chart Region 10
T12 peptide: YKGHCYKS
Protocol: as §1, §2

VYFHQHSI = biological target: T13, VYFHQHSI
T13 construct: 8mer of LY75 on the peptide microarray, chart Region 8
T13 peptide: VYFHQHSI
Protocol: as §1, §2

YPWHRFPV = biological target: T14, YPWHRFPV
T14 construct: 8mer of LY75 on the peptide microarray, chart Region 4
T14 peptide: YPWHRFPV
Protocol: as §1, §2

HFTYSRYP = biological target: T15, HFTYSRYP
T15 construct: 8mer of LY75 on the peptide microarray, chart Region 4
T15 peptide: HFTYSRYP
Protocol: as §1, §2

EFIYLRPF = biological target: T16, EFIYLRPF
T16 construct: 8mer of LY75 on the peptide microarray, chart Region 3
T16 peptide: EFIYLRPF
Protocol: as §1, §2

LSRLTYSS = biological target: T17, LSRLTYSS
T17 construct: 8mer of LY75 on the peptide microarray, chart Region 9
T17 peptide: LSRLTYSS
Protocol: as §1, §2

PIDDHFTY = biological target: T18, PIDDHFTY
T18 construct: 8mer of LY75 on the peptide microarray, chart Region 4
T18 peptide: PIDDHFTY
Protocol: as §1, §2

SERHFVSL = biological target: T19, SERHFVSL
T19 construct: 8mer of LY75 on the peptide microarray, chart Region 6
T19 peptide: SERHFVSL
Protocol: as §1, §2

EAVYFHQH = biological target: T20, EAVYFHQH
T20 construct: 8mer of LY75 on the peptide microarray, chart Region 8
T20 peptide: EAVYFHQH
Protocol: as §1, §2

TYSNFHPL = biological target: T21, TYSNFHPL
T21 construct: 8mer of LY75 on the peptide microarray, chart Region 5
T21 peptide: TYSNFHPL
Protocol: as §1, §2

YFHQHSIL = biological target: T22, YFHQHSIL
T22 construct: 8mer of LY75 on the peptide microarray, chart Region 8
T22 peptide: YFHQHSIL
Protocol: as §1, §2

YKSDQALH = biological target: T23, YKSDQALH
T23 construct: 8mer of LY75 on the peptide microarray, chart Region 10
T23 peptide: YKSDQALH
Protocol: as §1, §2

GSRWIQYK = biological target: T24, GSRWIQYK
T24 construct: 8mer of LY75 on the peptide microarray, chart Region 10
T24 peptide: GSRWIQYK
Protocol: as §1, §2

Measured: binding result

B1: LY75_A1 (antibody, V domains shown)
VH: EVQLVESGGGLVKPGGSLRLSCAASGFTYSNAWMSWVRQAPGKGLEWVGRIKSKTDGGTTDYAAPVQGRFTISRDDSKNTLYLQMNSLKTEDTAVYYCTIFGVVSFDYWGQGTLVTVSS
VL: DVQMTQSPSSLSASVGDRVTITCRASQSISDYLSWYQQRPGKAPNLLIYAASNLKTGVPSRFSGSGSGTDFTLTISTLQPEDFATYYCQQSYRSPWTFGQGTKVEIKR
notes: detected with anti-human IgG in the microarray; also called antibody LY75_A1; LY75_A1 monoclonal antibody
binds: all assays above
